This note sets out measurements from US20260152555A1 (HUAHUI HEALTH, published 2026).

Test [1] concerns the target T1, human CD112R, full length, expressed on cells (YTS-hCD112R; Jurkat-NFAT-luc-hCD112R) (human, UniProt Q6DKI7 42-326).
T1 sequence (looked up): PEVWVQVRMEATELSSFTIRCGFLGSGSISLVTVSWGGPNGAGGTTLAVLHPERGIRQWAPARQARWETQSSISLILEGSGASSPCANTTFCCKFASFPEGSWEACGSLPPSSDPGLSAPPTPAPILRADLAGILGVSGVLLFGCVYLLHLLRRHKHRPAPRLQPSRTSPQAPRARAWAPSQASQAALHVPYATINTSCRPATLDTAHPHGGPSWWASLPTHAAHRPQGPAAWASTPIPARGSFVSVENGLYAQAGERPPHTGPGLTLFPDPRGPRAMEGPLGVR
Kind of test: cell-based or functional assay.

In test [2] the target is V90A, W100A, or E145A mutation of hCD112R (hCD112R-ECD-mFc variants, as a group). Kind of test: SPR, multi-cycle, H733-hIgG4 captured by anti-hFc Ab, hCD112R-ECD-mFc variants as analytes (3.125-100 nM). For orientation: Surface plasmon resonance follows binding to a sensor surface in real time, without labels.
Test [3] concerns the target T2, hCD112R-ECD-His6-Avi (human, UniProt Q6DKI7 42-172, biotinylated (Avi tag) in the ELISA assays).
T2 construct: range 42-172; Expressed in HEK 293F cells; Analyte in SPR, and captured on streptavidin in ELISA; also called biotinylated hCD112R-ECD-His6-Avi; not shown: C-terminal His6-Avi tag
T2 sequence (looked up): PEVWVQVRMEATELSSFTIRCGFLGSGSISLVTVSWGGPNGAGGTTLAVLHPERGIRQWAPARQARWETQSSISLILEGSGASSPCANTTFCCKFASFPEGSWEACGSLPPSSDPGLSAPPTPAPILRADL
In words: ELISA-based competition, biotinylated hCD112R-ECD-His6-Avi on streptavidin, competitor hCD112-ECD-mFc at 0.1 ug/ml. The protocol: Biotinylated hCD112R-ECD-His₆-Avi protein antigen was captured with streptavidin (Sigma) coated 96-well plates (Nunc, MaxiSorp™). H733 serially diluted in 2% milk/PBS containing 0.1 μg/ml of the hCD112-ECD-mFc protein were added to the ELISA plates to test for competitive binding between hCD112R and hCD112. The signal was measured via ligand detection using HRP-anti-mouse IgG secondary Ab (Thermo Fisher Scientific).

The target in test [4] is T2, hCD112R-ECD-His6-Avi. Kind of test: SPR (Biacore T200), multi-cycle, H733 captured by anti-hFc Ab, hCD112R-ECD-His6-Avi as analyte, 1:1 Langmuir model. As for the experimental part: (§1) Anti-hFc Ab (Thermo Fisher) was covalently attached to surfaces of a CM5 sensor chip using an amine coupling kit (GE Healthcare). Abs at optimal concentrations were captured on the chip and the analytes (hCD112R-ECD-His₆-Avi) at single concentration or serial dilutions were then injected. Binding kinetics were evaluated using a 1:1 Langmuir binding model. The association rates (ka), dissociation rates (kd), and affinity constants (KD) were calculated using Biacore T200 evaluation software.

In test [5] the target is T2, hCD112R-ECD-His6-Avi. In words: SPR (Biacore T200), multi-cycle; H733 captured on anti-hFc Ab, hCD112R-ECD-His6-Avi injected; 1:1 Langmuir [Cont') B]. The protocol:
as §1

A further test deals with T3, hCD112R-ECD-mFc WT (human; mouse, UniProt Q6DKI7 42-172).
T3 construct: range 42-172; also called WT hCD112R; wildtype (WT) hCD112R protein; not shown: Fc domain of mouse IgG2a
T3 sequence (looked up): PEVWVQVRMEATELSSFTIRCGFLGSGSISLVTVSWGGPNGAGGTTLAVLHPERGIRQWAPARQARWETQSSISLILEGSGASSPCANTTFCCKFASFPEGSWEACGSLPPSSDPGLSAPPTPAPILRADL
In words: SPR (Biacore T200), multi-cycle; H733-hIgG4 captured on anti-hFc Ab, hCD112R-ECD-mFc WT injected (3.125-100 nM); 1:1 Langmuir [Cont') B]. As for the experimental part:
(§2) Kinetic analyses of the bindings of WT or mutated hCD112R-ECD-mFc proteins to H733 and hCD112-ECD were performed on a Biacore T200 instrument (Biacore, GE Healthcare). For the single-cycle SPR analysis, anti-mFc Ab (Thermo Fisher) was covalently attached to surfaces of a CM5 sensor chip using an amine coupling kit (GE Healthcare). WT or mutated hCD112R-ECD mFc fusion proteins were captured on the chip and H733-hIgG4 or hCD112-ECD-hFc were then injected. For the multi-cycle SPR analysis, anti-hFc Ab (Thermo Fisher) was covalently attached to surfaces of a CM5 sensor chip using an amine coupling kit (GE Healthcare). H733-hIgG4 or hCD112-ECD-hFc protein was captured on the chip and 2-fold serially diluted WT or mutated hCD112R-ECD-mFc proteins (3.125-100 nM) were then injected. Binding kinetics were evaluated using a 1:1 Langmuir binding model. The association rates (ka), dissociation rates (kd), and affinity constants (KD) were calculated using Biacore T200 evaluation software.

The next test deals with T4, H92A (human, UniProt Q6DKI7).
T4 construct: extracellular domain, amino acids 42-172; alanine-scanning variant; also called hCD112R-ECD-mFc H92A variant
T4 sequence (Fc fusion chain, looked up): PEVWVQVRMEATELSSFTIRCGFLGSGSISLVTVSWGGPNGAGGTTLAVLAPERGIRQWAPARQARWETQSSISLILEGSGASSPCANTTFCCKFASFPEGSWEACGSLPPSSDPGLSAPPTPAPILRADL
Kind of test: SPR (Biacore T200), multi-cycle; H733-hIgG4 captured on anti-hFc Ab, hCD112R-ECD-mFc variant injected (3.125-100 nM); 1:1 Langmuir [Cont') B]. The protocol: as §2

Test [6] addresses T5, hCD112R-ECD-mFc W100A variant (human; mouse, UniProt Q6DKI7 42-172).
T5 construct: range 42-172; also called W100A mutation of hCD112R; not shown: Fc domain of mouse IgG2a
T5 sequence (looked up): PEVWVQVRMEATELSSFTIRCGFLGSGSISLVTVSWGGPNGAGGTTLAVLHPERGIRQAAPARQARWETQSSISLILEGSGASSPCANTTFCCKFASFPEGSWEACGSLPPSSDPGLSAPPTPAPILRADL
Described as above. The protocol: as §2

B1: H733 (humanized Ab composed of 733-VH-humanV2 and 733-VL-human-C91S) (antibody, human IgG4, V domains shown)
VH: QVQLVQSGAEVKKPGASVKVSCKASGYTFTNYLIEWVRQAPGQGLEWMGVINPGHGFTNYAQKFQGRVTMTRDTSTSTVYMELSSLRSEDTAVYYCARGEWDWYFDVWGQGTTVTVSS
VL: DIQLTQSPSFLSASVGDRVTITCKASQNVGTAVAWYQQKPGKAPKLLIYSTSNRYTGVPSRFSGSGSGTEFTLTISSLQPEDFATYYCQQSSSYPFTFGGGTKVEIK
notes: also called H733-hIgG4; H733 mAb (hIgG4 form)
By IC50 is commonly meant the concentration at which inhibition is half-maximal. Usually Kd stands for a measure of binding affinity in units of concentration. A high value points to weaker binding. One may read the koff as a measure of how fast the partners let go of each other. The low end stands for slow dissociation, the high end for fast dissociation. What is called kon is the rate constant with which the complex forms. A high value points to faster complex formation. For the molecule B1, the “EC50 of luciferase production, Jurkat-NFAT-luc-hCD112R reporter cells with CHO-OKT3scFv_hCD112 cells” value in test [1] was found to be 0.39 mg/L. The fold decrease of binding as compared with WT hCD112R in test [2] lay in the range of 4 to 15 fold. The molecule further registered an IC50 with hCD112R-ECD-His6-Avi [3] of 0.87 mg/L. For the same molecule, the Kd with hCD112R-ECD-His6-Avi [4] amounted to 0.65 nM; in the test with hCD112R-ECD-mFc WT it was 0.333 nM; with H92A, 0.366 nM; in test [6], 5.64 nM. Also, the koff with hCD112R-ECD-His6-Avi [5] came out at 0.000865 s⁻¹; in the test with hCD112R-ECD-mFc WT it was 0.000364 s⁻¹; with H92A, 0.000373 s⁻¹; in test [6], 0.000574 s⁻¹. In addition, the kon turned out to be 1.33e+06 M⁻¹ s⁻¹ with hCD112R-ECD-His6-Avi [5], 1.1e+06 M⁻¹ s⁻¹ with hCD112R-ECD-mFc WT, 1.02e+06 M⁻¹ s⁻¹ in the test with H92A and 102000 M⁻¹ s⁻¹ in test [6].
